Measured values taken from the supplement of paper PMC9170038.

System: MS2 coat protein
Assay: apparent KD of MS2 coat protein; designed switch direction (-1 OFF switch, 1 ON switch): -1; higher = weaker reporter binding
Method in brief: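 Normalised cluster fluorescence was curve-fitted, and each design's median over clusters is its apparent KD. Before this, SNAP-549-labelled MS2 coat protein was titrated from 0.7 or 1.5 nM, doubling to 3 µM, over RNA switches transcribed on Illumina chips by stalled E. coli RNA polymerase. Titrations had no input, 200 uM small-molecule ligand, or an oligonucleotide input, and steps lasted 0.8–1.5 h (lowest) to 10–20 min (highest).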

[1] = input ligand: microRNA oligo, concentration not stated
[2] = Eterna round: R95, input ligand: microRNA oligo, concentration not stated
[3] = Eterna round: R95, input ligand: FMN 200 uM
[4] = Eterna round: R95, input ligand: none

For “CCGGUUGGCGCAGGAUAUACAUGAGGAUCACCCAUGUUCAUGAGGAUCACCCAUGAGUUUUUGUUGUAGAAGGGUGGCCCGGCC [A second MS2 with the first and last base exchanged (less A)] (Eterna round: R96, puzzle: Exclusion NG 2)”, the “apparent KD of MS2 coat protein” value (input ligand: FMN 200 uM) was 23.8 nM, the “apparent KD of MS2 coat protein” value [1] was 15 nM and the “apparent KD of MS2 coat protein” value (input ligand: none) was 29.4 nM.
For “CCGUUGGUAGGAUAUCCAACGAUAUACUUGAGGAUCACCCAAGUCCGUAGGGCGUUCGAAGGAGAAGGGCUGAUGG [Zaisaat] (Eterna round: R97, puzzle: Exclusion 5)”, the “apparent KD of MS2 coat protein” value (input ligand: FMN 200 uM) was 120 nM and the “apparent KD of MS2 coat protein” value (input ligand: none) was 108 nM.
In the case of “CCUACUCCCGUUAGGAUAUGUGGAGGCGUACCUCCGUAGAAGGAACAUGAGGAUCACCCAUGUCGCUGUCAUGC [Eternabot (L2) Solution 90] (Eterna round: R97, puzzle: Brourd's mod of Exclusion 4)”, the “apparent KD of MS2 coat protein” value (input ligand: FMN 200 uM) is reported as 18.4 nM and the “apparent KD of MS2 coat protein” value (input ligand: none) is reported as 19.9 nM.
For “CCUAGACAUGAGGAUCACCCAUGUGAGGAUAUGAUGCGAUCGUCGAAAGACGAUAGCAUCAGAAGGCACAUAUG [Fiskers Ex 1 - 5] (Eterna round: R96, puzzle: Exclusion 1)”, the “apparent KD of MS2 coat protein” value (input ligand: FMN 200 uM) was 130 nM, the “apparent KD of MS2 coat protein” value [1] was 34.2 nM and the “apparent KD of MS2 coat protein” value (input ligand: none) was 37.6 nM.
“CCUAGACAUGAGGAUCACCCAUGUGAGGAUAUGAUGCGAUCGUCGAAAGACGAUAGCAUCAGAAGGCACAUAUG [Fiskers Ex 1 - 5] (puzzle: Exclusion 1)” was tested, and the “apparent KD of MS2 coat protein” value [2] was 36.9 nM.
In the case of “CCUAUGUGAGGAUAUCACUGGUCUUCUCACUGGAUGAUUAGUGAGAAGGCACAUGAGGAUCACCCAUGUCGGUG [Ex4 - 3 - 51] (Eterna round: R96, puzzle: Exclusion 4)”, the “apparent KD of MS2 coat protein” value (input ligand: FMN 200 uM) is reported as 633 nM and the “apparent KD of MS2 coat protein” value [1] is reported as 482 nM.
With “CCUAUGUGAGGAUAUCACUGGUCUUCUCACUGGAUGAUUAGUGAGAAGGCACAUGAGGAUCACCCAUGUCGGUG [Ex4 - 3 - 51] (puzzle: Exclusion 4)” the “apparent KD of MS2 coat protein” value [2] was 524 nM.
With “CCUCAGGCGGAGGAUAUCUAACAACAAUAACAAAGAGAAGGCCGCACAUGAGGAUCACCCAUGUGUAUGGGCCG [Bitierre] (puzzle: Exclusion 6)” the “apparent KD of MS2 coat protein” value [2] was 13.1 nM.
In the case of “CCUCAGUAAGGAUAUCAGCUUAUAAAGUUGGUAAUGAGAGCUGAGAAGGUACAUGAGGAUCACCCAUGUUAGUU [JL Zatite mod 5] (puzzle: Exclusion 4)”, the “apparent KD of MS2 coat protein” value [2] is reported as 20.9 nM.
With “CCUCGACAUGAGGAUCACCCAUGUCAGGAUAUUGUGUUUCGGGUUUUUUACCUUUAGGCAAGAAGGGAUGUGUG [LRO-Excl1-16] (puzzle: Exclusion 1)” the “apparent KD of MS2 coat protein” value [2] was 15.8 nM.
In the case of “CCUCGUAGGGAGGAUAUCCUUUAAAUUUAAGGAGGAGAAGGCUCAACAUGAGGAUCACCCAUGUAAAAUUUAAA [-17, -14.8 kcal, A 36%] (Eterna round: R97, puzzle: Exclusion 6)”, the “apparent KD of MS2 coat protein” value (input ligand: FMN 200 uM) is reported as 109 nM and the “apparent KD of MS2 coat protein” value (input ligand: none) is reported as 78.7 nM.
“CCUCUACAUGAGGAUCACCCAUGUGAGGAUAUCUCGGAGCAGCCACUUAAGGCACUCCAGAGAAGGCACGUGUA [Oreresbe] (puzzle: Exclusion 1)” was tested, and the “apparent KD of MS2 coat protein” value [2] was 16.6 nM.
For “CCUCUGGUAGGAUAUACUGGUGGCGGCAUUAUCGUGAAGGUACAUGAGGAUCACCCAUGUAGAAGGGCUCAAGU [Eternabot (L2) Solution 83] (Eterna round: R97, puzzle: Exclusion 2)”, the “apparent KD of MS2 coat protein” value (input ligand: FMN 200 uM) was 38.3 nM and the “apparent KD of MS2 coat protein” value (input ligand: none) was 37.1 nM.
For “CCUUAGUUAGGAUAUCGGAUUGUUCACGGUGCUCACCGGGUCGAGAAGGAACAUGAGGAUCACCCAUGUCACGA [Eternabot (L1) Solution 72] (Eterna round: R97, puzzle: Exclusion 4)”, the “apparent KD of MS2 coat protein” value (input ligand: FMN 200 uM) was 60.1 nM and the “apparent KD of MS2 coat protein” value (input ligand: none) was 42.5 nM.
With “CCUUGUCUGAAGGAUAUCCGCCUAAAAGGCAAGGGAGAAGGUUAGACAUGAGGAUCACCCAUGUGCCGGUGUAA [EX6 A.26] (Eterna round: R97, puzzle: Exclusion 6)” the “apparent KD of MS2 coat protein” value (input ligand: FMN 200 uM) was 21.7 nM and the “apparent KD of MS2 coat protein” value (input ligand: none) was 25.1 nM.
For “CGACCCAUCAUAGGAUAUCACAGCACGGGAGAAAGUCUGAGGCGUCAACAUGAGGAUCACCCAUGUGAGAAGGAUGGUGGGCAG [Eternabot solution 17] (Eterna round: R96, puzzle: Exclusion NG 2)”, the “apparent KD of MS2 coat protein” value (input ligand: FMN 200 uM) was 120 nM, the “apparent KD of MS2 coat protein” value [1] was 184 nM and the “apparent KD of MS2 coat protein” value (input ligand: none) was 162 nM.
With “CGACGACAUGAGGAUCACCCAUGUCAGGAUAUGGAAAACCAGAAUAUAUUUUAACUUUCCAGAAGGGACAGGUC [Eternabot (Original) Solution 1] (Eterna round: R97, puzzle: Exclusion 1)” the “apparent KD of MS2 coat protein” value (input ligand: FMN 200 uM) was 19.6 nM and the “apparent KD of MS2 coat protein” value (input ligand: none) was 18.1 nM.
For “CGAGAGCGAGGAUAUACACAACUCCUCACUGUCAAGAAAGGACAUGAGGAUCACCCAUGUAGAAGGUGCAAAAC [Quries] (puzzle: Exclusion 2)”, the “apparent KD of MS2 coat protein” value [3] was 215 nM, the “apparent KD of MS2 coat protein” value [2] was 125 nM and the “apparent KD of MS2 coat protein” value [4] was 120 nM.
In the case of “CGAUAAUCCUAGGAUAUGCUAGACGAAAGUCUAGCAGAAGGAGGAACAUGAGGAUCACCCAUGUGUCCUAAUCG [Mat - Exclusion 6 - Eli Mod - D17] (Eterna round: R97, puzzle: Exclusion 6)”, the “apparent KD of MS2 coat protein” value (input ligand: FMN 200 uM) is reported as 30.9 nM and the “apparent KD of MS2 coat protein” value (input ligand: none) is reported as 15.3 nM.
With “CGAUAGAUAGGAUAUACAUGAGGAUCACCCAUGUGAACGGGUAGAUUUGUCAACUGAAGUAGAAGGAUCGUCGC [Eternabot (L2) Solution 64] (Eterna round: R97, puzzle: Exclusion 3)” the “apparent KD of MS2 coat protein” value (input ligand: FMN 200 uM) was 132 nM and the “apparent KD of MS2 coat protein” value (input ligand: none) was 761 nM.
With “CGAUCCGUAGAGGAUAUAGGACGUCAUAGCGAUUUAGAAGGCUACACAUGAGGAUCACCCAUGUACAUUUCAUA [Eternabot (L1) Solution 60] (Eterna round: R97, puzzle: Exclusion 6)” the “apparent KD of MS2 coat protein” value (input ligand: FMN 200 uM) was 18.9 nM and the “apparent KD of MS2 coat protein” value (input ligand: none) was 18.1 nM.
With “CGAUGAGGAGUGAGGAUAUCGUGUUCGAAAGAACGUGAGAAGGCACAUGAGGAUCACCCAUGUGAUCCUCAUGG [Omei Ex4B A23] (Eterna round: R97, puzzle: Brourd's mod of Exclusion 4)” the “apparent KD of MS2 coat protein” value (input ligand: FMN 200 uM) was 1030 nM and the “apparent KD of MS2 coat protein” value (input ligand: none) was 164 nM.
“CGAUGAGGUGUGAGGAUAUCGUGUUCGAAAGAACGUGAGAAGGCACAUGAGGAUCACCCAUGUUAACCUUGUCG [Omei Ex4B A13] (Eterna round: R97, puzzle: Brourd's mod of Exclusion 4)” was tested, and the “apparent KD of MS2 coat protein” value (input ligand: FMN 200 uM) was 11.5 nM and the “apparent KD of MS2 coat protein” value (input ligand: none) was 13.2 nM.
With “CGAUGCUCGUGUCCACAUGAGGAUCACCCAUGUCGAGUUAGCGAGGAUAUCGGUAACACAUAGUACGAGAAGGCGCGAACCUGA [Ex NG3 #27] (Eterna round: R96, puzzle: Exclusion NG 3)” the “apparent KD of MS2 coat protein” value (input ligand: FMN 200 uM) was 52.5 nM, the “apparent KD of MS2 coat protein” value [1] was 14.6 nM and the “apparent KD of MS2 coat protein” value (input ligand: none) was 17.3 nM.
In the case of “CGAUGUUAUGUCAGGAUAUGCGUUGCGAAAGCGAUGCAGAAGGGACAUGAGGAUCACCCAUGUCCUAACCAUCG [Omei A 7] (puzzle: Brourd's mod of Exclusion 4)”, the “apparent KD of MS2 coat protein” value [2] is reported as 10.7 nM.
In the case of “CGCACCACAUGAGGAUCAAACAUGAGGAUCACCCAUGUAUAACAAGCUUUUUGCUCGUCUUAUAAAUAUGUGGUGCG [Electric Eye 3 - Jieux - Sensor, turn-off variant 1] (Eterna round: R97, puzzle: Sensor, turn-off variant 1)”, the “apparent KD of MS2 coat protein” value (input ligand: FMN 200 uM) is reported as 13.9 nM and the “apparent KD of MS2 coat protein” value (input ligand: none) is reported as 14.2 nM.
With “CGCAUGUGAGGAUAUGUACUAGUUGAGCACAGUCAGCCAGAACAGAAGGCACAUGAGGAUCACCCAUGUGUACC [EX4 B.7] (Eterna round: R97, puzzle: Exclusion 4)” the “apparent KD of MS2 coat protein” value (input ligand: FMN 200 uM) was 154 nM and the “apparent KD of MS2 coat protein” value (input ligand: none) was 22.3 nM.
For “CGCCUGUUAGGAUAUUAGUAGUAGUCAGAAUAGACUAUUACUGAGAAGGGACAUGAGGAUCACCCAUGUUGGCG [Eli x4 4.12] (Eterna round: R97, puzzle: Exclusion 4)”, the “apparent KD of MS2 coat protein” value (input ligand: FMN 200 uM) was 22.2 nM and the “apparent KD of MS2 coat protein” value (input ligand: none) was 18.8 nM.
With “CGCGCGCGUGUAGGAUAUGUGUUUGGUUCGGGCGCAGAAGGACAUGAGGAUCACCCAUGUGUGUGUGUGCGCGCAGUGUGUGCG [-30, -27 kcal, 15% A] (Eterna round: R96, puzzle: Exclusion NG 1)” the “apparent KD of MS2 coat protein” value (input ligand: FMN 200 uM) was 55 nM, the “apparent KD of MS2 coat protein” value [1] was 32.7 nM and the “apparent KD of MS2 coat protein” value (input ligand: none) was 41.7 nM.
“CGCUAAGCUAUGCUCGUCAACAUGAGGAUCACCCAUGUGCACUACGGAAGGUACACAACGUACCAAAGACCUCAAAG [Eternabot (Original) Solution 27] (Eterna round: R97, puzzle: Sensor, turn-off variant 1)” was tested, and the “apparent KD of MS2 coat protein” value (input ligand: FMN 200 uM) was 185 nM and the “apparent KD of MS2 coat protein” value (input ligand: none) was 119 nM.
In the case of “CGCUGGACAGGAUAUGUUCUUGGGCACUUGAGGAUCACCCAAGUCAUCAAGAAAUCAGGCACAGAAGGGUUUAUGG [salish99_ex5_r4_021] (Eterna round: R97, puzzle: Exclusion 5)”, the “apparent KD of MS2 coat protein” value (input ligand: FMN 200 uM) is reported as 18.7 nM and the “apparent KD of MS2 coat protein” value (input ligand: none) is reported as 19.9 nM.
With “CGGAAAUCCUAGGAUAUGCUAGACGAAAGUCUAGCAGAAGGAGGAACAUGAGGAUCACCCAUGUGUCCUAUCCG [Mat - Exclusion 6 - Eli Mod - D16] (Eterna round: R97, puzzle: Exclusion 6)” the “apparent KD of MS2 coat protein” value (input ligand: FMN 200 uM) was 26 nM and the “apparent KD of MS2 coat protein” value (input ligand: none) was 17.1 nM.
For “CGGAGCGUGGGUAGGUGCAACAUGAGGAUCACCCAUGUCUCACAAGCUUUUUGCUCAUCUUAUUGUACCUUGGUGCU [Sensor v3, turn-off variant 1 (MOD of JL v.2)] (puzzle: Sensor v3, turn-off variant 1)”, the “apparent KD of MS2 coat protein” value [3] was 130 nM, the “apparent KD of MS2 coat protein” value [2] was 12.3 nM and the “apparent KD of MS2 coat protein” value [4] was 146 nM.
For “CGGAUACAUGAGGAUCACCCAUGUGAGGAUAUCGUACGUUCGUCGAAAGACGAUCGUACGAGAAGGCAUGACCG [Eli x1 4.36] (Eterna round: R97, puzzle: Exclusion 1)”, the “apparent KD of MS2 coat protein” value (input ligand: FMN 200 uM) was 64 nM and the “apparent KD of MS2 coat protein” value (input ligand: none) was 113 nM.
In the case of “CGGAUGUGAGGAUAUACAUGAGGAUCACCCAUGUGAGCCAGCUAGCUGACUGGCUCAUGUAGAAGGCACGUCUG [JL-ex3-2.15 Brourd mod] (puzzle: Exclusion 3)”, the “apparent KD of MS2 coat protein” value [2] is reported as 42.2 nM.
